For one substance, critical oligomer concentration (COC) results are on record in publication PMC8324842.

Like-named read-outs stand apart in the source and are kept apart here. Bounds are passed on as bounds.

The target of assay [1] is dimAβ (dimeric Aβ variant: two Aβ40 units linked in one polypeptide chain through a flexible glycine-serine-rich linker) (UniProt P05067). Description: ThT fluorescence aggregation kinetics; dimAβ at pH 7.4, concentration series, 37 °C, 150 mM NaCl, 1 µM ThT, microplate; lag-free oligomerization phase above the critical oligomer concentration.
Assay [2] has the same target. The experiment in a line: ThT fluorescence aggregation kinetics; dimAβ at pH 5.6, concentrations down to 0.4 µM, 37 °C, 150 mM NaCl.
For assay [3] the target is unchanged. Description: ThT fluorescence aggregation kinetics; dimAβ at pH 7.4, concentration series, 37 °C, 150 mM NaCl, 1 µM ThT, microplate; lag-free oligomerization phase above the critical oligomer concentration. This is another data set of the same source.

Take “dimAβ (dimeric Aβ variant: two Aβ40 units linked in one polypeptide chain through a flexible glycine-serine-rich linker) (from UniProt P05067 672-711; P05067 672-711)”: the critical oligomer concentration (COC) is 1 µM in assay [1] and 1.5 µM in assay [3]. Besides, the critical oligomer concentration (COC) at pH 5.6 in assay [2] is under 0.4 µM.
